Values quoted from earlier work, collected in PMC8020814.
pKd: −log10 of the molar value.

Target: C3b C3b (Homo sapiens) (UniProt P01024)
Sequence of UniProt P01024 (P01024 566-670): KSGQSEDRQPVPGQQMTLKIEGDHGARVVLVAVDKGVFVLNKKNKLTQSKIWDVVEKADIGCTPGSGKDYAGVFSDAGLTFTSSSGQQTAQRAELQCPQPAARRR

Question: With Factor H FH(1-4) (from UniProt P08603) as the substance, how does the pKd read?
Answer: 4.96
